These results are taken from PMC8880518, “Regulation of the Leucine Metabolism in Mortierella alpina” (Journal of Fungi, 2022).

In series [1] the target is T1, α-isopropylmalate synthase LeuA1 (Mortierella alpina, UniProt A0A9P6IVH7).
T1 construct: gene BGZ70_001638; N-terminally His6-tagged LeuA1
In words: continuous DTNB assay of CoA release with purified recombinant enzyme. The series is classed as biochemical.

In series [2] the target is T2, BCAA aminotransferase BatA (Mortierella alpina, UniProt A0A9P6M176).
T2 construct: gene BCAT1; 374 aa), N-terminally His6-tagged
As to the kind of experiment: activity of purified enzyme with and without PLP (HILIC-UHPLC-MS). The series is classed as biochemical.

The target of series [3] is LeuA1, α-isopropylmalate synthase of Mortierella alpina (Mortierella alpina). In words: SEC; size exclusion chromatography of the purified His6-tagged proteins in solution; conditions are in the Supplementary Materials.
Substrate in series [4]: CC(C)C(=O)C(=O)O
In words: Michaelis-Menten kinetics (KM), DTNB assay with purified recombinant enzyme. Type of series: biochemical, Mortierella alpina. Particulars: divalent cation (Mg2+, exchangeable with Ca2+ or Mn2+) substrate binding pocket.

Substrate in series [5]: CCC(=O)C(=O)O
The series is described as above. Type of series: biochemical, Mortierella alpina. Particulars: divalent cation (Mg2+, exchangeable with Ca2+ or Mn2+).

Substrate in the series “purified protein”: CC(=O)SCCNC(=O)CCNC(=O)[C@H](O)C(C)(C)COP(=O)(O)OP(=O)(O)OC[C@H]1O[C@@H](n2cnc3c(N)ncnc32)[C@H](O)[C@@H]1OP(=O)(O)O
As to the kind of experiment: purified protein. Particulars: divalent cation (Mg2+, exchangeable with Ca2+ or Mn2+).

Where two headings read alike, the source gives them in different places.

T2 sequence (A0A9P6M176 entry or part of it): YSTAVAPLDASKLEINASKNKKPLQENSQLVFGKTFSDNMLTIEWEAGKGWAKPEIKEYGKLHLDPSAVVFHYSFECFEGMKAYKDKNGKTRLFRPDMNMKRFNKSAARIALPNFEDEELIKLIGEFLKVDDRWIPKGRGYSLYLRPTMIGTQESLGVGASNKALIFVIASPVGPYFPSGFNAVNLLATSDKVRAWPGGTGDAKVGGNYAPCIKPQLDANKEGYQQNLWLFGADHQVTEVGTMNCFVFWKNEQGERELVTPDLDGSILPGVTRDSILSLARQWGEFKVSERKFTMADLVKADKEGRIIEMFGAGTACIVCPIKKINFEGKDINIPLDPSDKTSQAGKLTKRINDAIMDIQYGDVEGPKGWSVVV

For orientation: Ki means a dissociation constant, usually derived from enzyme kinetics or from competition with a known ligand. In the case of `CC(C)C[C@H](N)C(=O)O` [Leu, L-leucine], the Ki in series [1] (read-out: KI) turned out to be 53 ± 2.5 µM.

As for `CCC(=O)SCCNC(=O)CCNC(=O)[C@H](O)C(C)(C)COP(=O)(O)OP(=O)(O)OC[C@H]1O[C@@H](n2cnc3c(N)ncnc32)[C@H](O)[C@@H]1OP(=O)(O)O` [Prop-CoA, propionyl-CoA], the Ki in series [1] was 320 ± 121 µM.

`Cc1ncc(COP(=O)(O)O)c(C=O)c1O` [PLP, pyridoxal phosphate]: the “activity of purified enzyme with and without PLP (HILIC-UHPLC-MS)” value in series [2] was “The enzyme converted all BCAAs (L-Ile, L-Leu, L-Val) and their respective α-keto acids in a PLP-dependent manner”.

Consider `CC(C)CC(=O)C(=O)O` [KIC, α-ketoisocaproate], for which, in series [1] (read-out: KI), the Ki was found to be 293 ± 30.4 µM.

What is called stoichiometry N is the number of molecules, sites or subunits per partner or assembly. In turn, “LeuA1, α-isopropylmalate synthase of Mortierella alpina (enzyme)” had a stoichiometry N in series [3] of 6.

B1: α-isopropylmalate synthase LeuA1 (Mortierella alpina) (protein)
chain: MAQANKDKLIIFDTTLRDGEQSPGVTLTVNEKIEIAKQLSRLGVDVLEAGFPVASQGDFDAVERIAIEVGPLMVGREALGKPITIAGLARAVPADIQRCYDAIAKAPHKRIHTFLATSDIHLEHKLKISRDECVKRAVAAVSFAKTLVQDVEFSPEDAGRSDQDFLCKVLSAVIEAGATTLNIPDTVGYNMPEEYGSMIKYLIANTKGSDTVIWSAHCHNDLGLATANTLSGIMNGIRQVEVTINGIGERAGNTAMEEVVMAIHTHPNFFPVYHTINTPLFFRISQLVSSLSGMAVQSNKAIVGANAFLHESGIHQDGVLKNKTTYEIISPETVGANTVNLVLGKHSGRAAFKSRLQELGFGELSDEEFQVAFNSFKTLADSKKRVTEQDLLALLSDQVSAASGDKATFVIKSLQVVSGTSFATATVQLQNSQTGDVVVDAAIGKSGPVEAVFLAIQRLVGKRIRLLKFDITAVGEGVDALGQVSVKIAEDTSSPGSSDNDETAEEAKDSESKANEISQATYHGHGADSDIIQAATKAYLNAINRLVANENERLLGERKVDV
notes: N-terminally His6-tagged LeuA1
By Km is commonly meant the concentration of substrate that gives half-maximal velocity. What is called kcat is the maximal rate divided by the concentration of active sites. The kcat/Km is the second-order rate constant that governs catalysis at low substrate concentration. As to B1, in series [4], the Km came to 56.9 ± 6.3 µM, the kcat was 26.6 ± 1.2 s⁻¹ and the specificity constant (kcat/Km) stood at 467000 M⁻¹ s⁻¹. Moreover, in series [5], the Km came to 280.8 ± 45.0 µM, the kcat amounted to 47.4 ± 5.41 s⁻¹ and the kcat/Km was 169000 M⁻¹ s⁻¹. In “purified protein”, the Km amounted to 28.6 ± 4.1 µM, the kcat amounted to 25 s⁻¹ and the kcat/Km was 873000 M⁻¹ s⁻¹.
